Self-cleavage data for 167 variants are collected here from the RNAGym collection of RNA variant scans (doi:10.7554/elife.80360).

First the molecules themselves.
B1: HDV Ribozyme (parent)
chain: GGCCGGCAUGGUCCCAGCCUCCUCGCUGGCGCCGGCUGGGCAACAUUCCGAGGGGACCGUCCCCUCGGUAAUGGCGAAUGGGACCCA

In the data set the parent is B1. The data set can be described thus: self-cleavage, relative activity (ratio to wild type); higher = more cleavage; co-transcriptional.
Regarding A8U A71G, the self-cleavage came out at 0.917. In the case of C48A C49A, the self-cleavage worked out at 1.16.

Turning to C48A C49U, the self-cleavage amounted to 1.23.

Turning to G28A G54C, the self-cleavage came out at 0.237. In the case of G11A G40U, the self-cleavage is 0.458.

For G10A U65G, the self-cleavage was 0.767.

As to C33U U37C, the self-cleavage was found to be 0.923. With U20G C22U, the self-cleavage amounted to 0.145.

With C63G U69A, the self-cleavage came out at 1.16.

With C49G, the self-cleavage is 0.905.

For G73A G76A, the self-cleavage turned out to be 0.665. The same measure for G31U G50U: 0.415; for A42G G82A: 0.158; for C33U U69A: 0.898.

For the variant G11A G29C, the self-cleavage was determined as 0.123.

Consider A43C U69C, for which the self-cleavage is 0.582. With C18G C19G, the self-cleavage came to 0. With U27A C86A, the self-cleavage came out at 0.733. On to A16U U23C, for which the self-cleavage is 0.831.

As for U9G C58U, the self-cleavage was 1.2. As for G39C G52C, the self-cleavage was found to be 0.309. With G10U A16G, the self-cleavage came to 0.618. The value for G5U U60C was 0.604; that for G29A C66G was 0.204; that for U20G G73A was 0.113. The same measure for U9A U79A: 0.923; for C85A C86A: 0.924; for U12G G68U: 0.779. On to C3U G29C, for which the self-cleavage amounted to 0.0601. The value for A51G U72G was 0.615; that for U20G A51C was 0.332; that for C32G C75G was 0. The same measure for G5C U9C: 0.312; for C14G G74C: 0.0639. As to C18A C36G, the self-cleavage was determined as 0.

As to C7U C15G, the self-cleavage amounted to 0.536. On to G6A, for which the self-cleavage is 0.726. As for C18G C26G, the self-cleavage was 0.0831. The same measure for C24G U47C: 0.0462. Regarding U12A U72C, the self-cleavage was 0.277.

On to C26U G80U, for which the self-cleavage was found to be 0.433. As to A56C C61A, the self-cleavage is 1.13. Take G2U C75U: the self-cleavage amounted to 0.021. The same measure for C61U G73A: 0.547; for U79A G81U: 0.295.

For C63U C86G, the self-cleavage was determined as 1.11. As to U9A G81C, the self-cleavage is 0.35. The same measure for C14A A83G: 0.475; for G35C U60A: 0.192; for G74U A78U: 0.332. C13U C15A: the self-cleavage is 0.482. C13U A83U: the self-cleavage was determined as 0.185. For G50A G73C, the self-cleavage is 0.436.

As for C3A G82A, the self-cleavage was 0.0811. The value for G2A C24A was 0.0815; that for C48U C49G was 0.982; that for G39A A71U was 0.383.

On to C18U G50C, for which the self-cleavage was 0.705. On to U60A A77U, for which the self-cleavage is 0.453. As for C41U U47G, the self-cleavage stood at 0.95.

Take A45U G67C: the self-cleavage turned out to be 0.719. The same measure for G50A G80U: 0.233; for C3U C13G: 0.179. Turning to C13G A70U, the self-cleavage turned out to be 0.123. With G17C G25U, the self-cleavage is 0.101.

Take C7G G52U: the self-cleavage stood at 0.196. Consider G34C C64A, for which the self-cleavage was determined as 0.0739. For U23G G29U, the self-cleavage is 0. Take G10C A87G: the self-cleavage turned out to be 0.887. As for U20A C36A, the self-cleavage is 0.135. The same measure for C14A C57A: 0.745; for A51U A87U: 1.03. On to U27A C61U, for which the self-cleavage stood at 0.997.

Take C36A A45U: the self-cleavage came to 0.0475. Consider U9A C15A, for which the self-cleavage turned out to be 0.677. As to C4U U12A, the self-cleavage turned out to be 0.111.

Turning to G1A G73U, the self-cleavage came to 0.0545. Regarding C30A U69C, the self-cleavage is 0.623. Consider G1C A77U, for which the self-cleavage was 0. U37C C66G: the self-cleavage is 0.932. For G1A C85A, the self-cleavage was determined as 0.0852. As to U72G, the self-cleavage was 0.662. In the case of U23C G80U, the self-cleavage stood at 0.16. As to C26G C61U, the self-cleavage worked out at 1.06. The same measure for G40U C64A: 0.57.

Take U20G A77U: the self-cleavage is 0.237.

On to C7A G81C, for which the self-cleavage was found to be 0.0536. For the variant C3A A71C, the self-cleavage turned out to be 0.105. The same measure for G6A G53A: 0.874; for G6A G53U: 0.786.

Consider U65G C66G, for which the self-cleavage stood at 0.812.

Take G6C A83G: the self-cleavage came out at 0.189. Regarding C7A C66A, the self-cleavage was 0.539.

Take G11A G35U: the self-cleavage is 0.149. The value for C4G U9A was 0.534; that for G31U U47C was 0.383; that for C4U C66G was 0.875.

With G53A A78C, the self-cleavage is 0.104. For G25A C44U, the self-cleavage turned out to be 0.107.

Take U23G C58U: the self-cleavage came to 0.582. The same measure for G25C C30G: 0.0959; for C58G: 0.964; for U60A G68C: 0.791.

As to A16U G39U, the self-cleavage was 0.403.

With U27C C66U, the self-cleavage was 0.534. The value for C33A A71C was 0.248; that for U9G C48G was 0.997. As to G35C C66G, the self-cleavage came to 0.228. Regarding U65G A87C, the self-cleavage turned out to be 0.859. The value for A16U C48A was 1.07; that for C63A A78C was 0.108. Take A43C U60A: the self-cleavage came to 0.249. The value for C3A C32A was 0.0545.

As to G38A U69C, the self-cleavage was determined as 0.31. For the variant C58A G82C, the self-cleavage was found to be 0.17.

U27C G52A: the self-cleavage stood at 0.884. The same measure for G53A G68A: 0.743; for C33U U72C: 0.268. On to G28C C63G, for which the self-cleavage stood at 0.101. With U20C G76A, the self-cleavage came to 0.198. On to C13U C63A, for which the self-cleavage stood at 0.542. Take G59U G76A: the self-cleavage turned out to be 0.925. As to G53C U60C, the self-cleavage worked out at 1. Consider C75U C84U, for which the self-cleavage worked out at 0.0767. The same measure for C7A A45C: 0.0462. Turning to G68U G73C, the self-cleavage came to 0.205. As for A16C U37A, the self-cleavage was determined as 0. Regarding G38U A51G, the self-cleavage came out at 0.32.

Turning to A43U C85G, the self-cleavage was 0.609. For the variant G74C A78C, the self-cleavage was found to be 0.185. As to C24A G34U, the self-cleavage came to 0.0831. Turning to G1U G82U, the self-cleavage came out at 0.389. The value for C22G U79C was 0.105; that for G10A G73A was 0.175; that for U12A G39A was 0.225. The same measure for G55C C61G: 0.959; for A16G G73U: 0.391. For G73C C86U, the self-cleavage was determined as 0.914. As to G28C G81U, the self-cleavage came to 0.0639.

For the variant G28C A71U, the self-cleavage was 0.0426. For C3A G73A, the self-cleavage came out at 0.152. With G11U C58G, the self-cleavage turned out to be 0.44. The same measure for C15G A70G: 0.554. On to U47G A51C, for which the self-cleavage amounted to 1.13. Take G11A C75A: the self-cleavage worked out at 0. The same measure for G6U G74U: 0.151. The value for U60G U79C was 0.203; that for G11A G76C was 0.796; that for G54U G73A was 0.776. As for G6A G29U, the self-cleavage was 0.0563. Turning to G10A U46G, the self-cleavage worked out at 0.536.

Consider C18U C49A, for which the self-cleavage is 0.623. Turning to U37C A42U, the self-cleavage turned out to be 0.295. G31C U60A: the self-cleavage is 0.434. As to G5A U65C, the self-cleavage was 0.308. Turning to C24U G31U, the self-cleavage worked out at 0.0228. The value for G55U G81U was 0.272; that for U65A A87U was 0.96. C7U A70G: the self-cleavage was 0.831.

Consider G68C U72C, for which the self-cleavage worked out at 0.38. For U23A C30G, the self-cleavage worked out at 0. With A16U A83G, the self-cleavage stood at 0.567. Turning to C3G G74U, the self-cleavage came to 0.189. Regarding U20G C44U, the self-cleavage is 0.192.

Regarding G10C G53U, the self-cleavage came to 0.91. G59A U72G: the self-cleavage turned out to be 0.637. The value for A8G C62U was 0.95.
